We go through three molecules from patent publication US7691628, “Use of Rev-erb family of receptors in screening” (Merck Patent GmbH).

What all share (details): tags: pSG5-hRev-erbα, TnT T7 rabbit reticulocyte lysate; label: 32P
Data set [1] deals with T1, Rev-erb alpha (NR1D1) (Homo sapiens, UniProt P20393 P20393:1-614).
T1 sequence: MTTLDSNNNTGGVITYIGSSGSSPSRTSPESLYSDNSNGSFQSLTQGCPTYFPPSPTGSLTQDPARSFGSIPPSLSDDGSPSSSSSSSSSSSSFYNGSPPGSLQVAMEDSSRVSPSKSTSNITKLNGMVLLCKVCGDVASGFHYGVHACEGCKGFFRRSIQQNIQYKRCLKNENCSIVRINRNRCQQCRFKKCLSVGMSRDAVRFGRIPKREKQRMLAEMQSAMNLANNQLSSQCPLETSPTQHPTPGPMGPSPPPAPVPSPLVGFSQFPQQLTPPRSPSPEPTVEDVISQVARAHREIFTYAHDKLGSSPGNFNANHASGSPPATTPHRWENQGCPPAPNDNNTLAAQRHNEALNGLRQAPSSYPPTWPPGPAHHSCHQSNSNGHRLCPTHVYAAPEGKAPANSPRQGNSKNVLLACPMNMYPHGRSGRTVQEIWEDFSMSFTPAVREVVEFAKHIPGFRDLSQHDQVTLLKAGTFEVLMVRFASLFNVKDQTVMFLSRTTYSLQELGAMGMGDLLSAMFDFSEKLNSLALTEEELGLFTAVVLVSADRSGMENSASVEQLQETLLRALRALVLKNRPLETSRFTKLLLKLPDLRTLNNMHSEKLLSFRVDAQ
Description: EMSA; two complexes, monomer and dimer; 10 mM Hepes, 80 mM KCl, polydIdC. (In EMSA bound probe runs differently from free probe, usually more slowly.)

In data set [2] the target is T1, Rev-erb alpha (NR1D1). The data set can be described thus: EMSA; no significant retardation.
The target of data set [3] is T1, Rev-erb alpha (NR1D1). Description: EMSA; data not illustrated.

B1: Rev-DR2 (dsDNA)
DNA 1: GATCCGGAAAAGTGTGTCACTGGGGCACGA
DNA 2: GATCTCGTGCCCCAGTGACACACTTTTCCG
In the case of B1, in the data set with Rev-erb alpha (NR1D1) [1], the binding result was “binds”.

B2: C3P-DR2 (-104/-72) (dsDNA)
DNA 1: GATCCTCATCTCCACTGGTCAGCAGGTGACCTTTGC
DNA 2: GATCGGCAAAGGTCACCTGCTGACCAGTGGAGATGAG
Consider B2, for which, in the data set with Rev-erb alpha (NR1D1) [2], the binding result was “no binding”.

B3: HCIII-TaTaKO (dsDNA)
DNA 1: GATCGATATAAAACAGGCAGGAACCCTC
DNA 2: GATCGAGGGTTCCTGCCTGTTTTATATC
On to B3, for which the binding result in the data set with Rev-erb alpha (NR1D1) [3] is listed as “no binding”.
